This note sets out measurements from the RNAGym collection of RNA variant scans (doi:10.7554/elife.90254).

The labels stand for the following.
B1: OR4K15 (parent)
chain: GUUAACGGUCAUAGGCCAUGGAAACUAGGAGCACCAUUUCGCUGCCAGUGAAGAAAUGAACAAAGAAAAUCUGGGCCAGGCAGGCAUCAAAAGAAAUAGUCUUGCGCUCAACCAGAAAGUCUGUAAUCAUUUUAAGGGUA

The variants in this data set derive from B1. The data set is described as follows: self-cleavage, relative activity (ratio to wild type); higher = more cleavage; in vitro, sequencing; the parent is a self-cleaving ribozyme.
Turning to G50U A66U, the self-cleavage turned out to be 2.16.

U49C U72A: the self-cleavage was found to be 0.15.

In the case of U37C C76U, the self-cleavage came out at 0.06.

For A27G A78G, the self-cleavage is 0.3.

For the variant A126U A135G, the self-cleavage is 1.24.

On to A11U A78C, for which the self-cleavage amounted to 0.22.

Regarding A66G A92G, the self-cleavage turned out to be 0.74.

Consider U49A A129G, for which the self-cleavage worked out at 0.63.

As for A33U C34A, the self-cleavage was 1.81.

Regarding A62C A94G, the self-cleavage stood at 1.61.

Turning to U39G A125G, the self-cleavage stood at 0.62.

In the case of U2C U12C, the self-cleavage is 0.74.

Turning to A64G A92G, the self-cleavage was 1.48.

In the case of A68G C101G, the self-cleavage came out at 0.08.

Consider U72A U102C, for which the self-cleavage is 0.58.

With U2G A68G, the self-cleavage came to 0.43.

As to G73U A92G, the self-cleavage is 0.16.

Regarding A114U A117G, the self-cleavage amounted to 0.04.

As for U49A A126U, the self-cleavage is 1.59.

As for A13G U57A, the self-cleavage amounted to 1.24.

As to U70C U87G, the self-cleavage was found to be 0.04.

For the variant U37C U87A, the self-cleavage was 1.49.

U12C A90U: the self-cleavage came out at 0.94.

Take U9G A91U: the self-cleavage is 1.26.

For U102C A140G, the self-cleavage worked out at 2.39.

With A67G A116G, the self-cleavage worked out at 0.71.

For C16U A69G, the self-cleavage is 0.74.

U39A U100A: the self-cleavage amounted to 0.55.

Take A36U G83A: the self-cleavage amounted to 1.13.

Turning to G58A U132C, the self-cleavage stood at 1.64.

Regarding U19G A23G, the self-cleavage was 0.83.

As for A22G G31U, the self-cleavage stood at 0.75.

Consider G41A A52G, for which the self-cleavage came out at 1.07.

In the case of A95U U103A, the self-cleavage amounted to 0.6.

Take A114G A117G: the self-cleavage amounted to 0.37.

Regarding U87C U130G, the self-cleavage is 0.15.

For the variant G8A A22G, the self-cleavage was determined as 1.39.

U38C C105A: the self-cleavage was 0.05.

For the variant C40U U97C, the self-cleavage was 0.94.

As for A18G A69U, the self-cleavage amounted to 1.94.

As to A64G A118U, the self-cleavage stood at 0.97.

As to A69G U120C, the self-cleavage is 0.98.

With U72C C107U, the self-cleavage was 0.01.

On to C6U A66G, for which the self-cleavage stood at 1.33.

Regarding G84A U102G, the self-cleavage worked out at 1.29.

Regarding U26A A91G, the self-cleavage was 1.38.

As for A62G G75U, the self-cleavage came out at 0.15.

On to A36G G104A, for which the self-cleavage turned out to be 0.07.

For the variant A24C U120C, the self-cleavage came to 1.13.

For A66U A82U, the self-cleavage amounted to 0.24.

Regarding A47G U72C, the self-cleavage was found to be 0.35.

G93U A135G: the self-cleavage was 1.96.

Regarding U12A U43A, the self-cleavage was determined as 1.63.

For the variant A27G U131C, the self-cleavage came out at 1.67.

Take A67G U139A: the self-cleavage is 1.87.

Take A90G A116U: the self-cleavage was found to be 0.5.

For the variant A18U A66C, the self-cleavage is 1.22.

U38C G80U: the self-cleavage was found to be 0.06.

Consider A30G A55G, for which the self-cleavage is 1.14.

Take U9C A51G: the self-cleavage worked out at 1.27.

Turning to A95G U102C, the self-cleavage worked out at 2.62.

For A13G A94U, the self-cleavage was found to be 1.4.

As to A54G A94G, the self-cleavage amounted to 1.2.

Consider U2C A56G, for which the self-cleavage was 1.12.

On to A64G A67G, for which the self-cleavage stood at 1.27.

As to A55G U131C, the self-cleavage stood at 1.63.

Regarding U12G A22G, the self-cleavage worked out at 1.13.

G106A A135G: the self-cleavage stood at 0.02.

Turning to U72A A117G, the self-cleavage stood at 0.16.

For the variant A22G A126G, the self-cleavage turned out to be 0.85.

Take G31A A60G: the self-cleavage is 0.77.

As for U87A A92G, the self-cleavage was 2.61.

In the case of U19C A66G, the self-cleavage was found to be 1.62.

For the variant A47C C105U, the self-cleavage came to 0.32.

For the variant A13G A118U, the self-cleavage amounted to 0.59.

On to G106A U108C, for which the self-cleavage was 0.

In the case of U38A A55G, the self-cleavage amounted to 1.

For G83A C109U, the self-cleavage was determined as 0.71.

In the case of A67G C77U, the self-cleavage turned out to be 1.03.

Turning to U19A C77U, the self-cleavage was found to be 1.25.

On to A47G A92G, for which the self-cleavage was determined as 1.02.

A51U U57G: the self-cleavage came out at 0.64.

A64G A116U: the self-cleavage was determined as 0.19.

Regarding A59G A135U, the self-cleavage came out at 1.55.

In the case of A114C U122A, the self-cleavage stood at 0.04.

U100A A111G: the self-cleavage was 0.02.

Take A51C G99A: the self-cleavage was found to be 0.94.

Turning to U131C U132A, the self-cleavage was determined as 0.94.

With C32G, the self-cleavage was found to be 1.25.

For A64U A89G, the self-cleavage came to 1.6.

As to A33U A116G, the self-cleavage worked out at 1.55.

Turning to G20U A47G, the self-cleavage is 1.08.

As to A64C U103C, the self-cleavage came out at 0.24.

A52U A111G: the self-cleavage is 0.01.

As for A69G A126U, the self-cleavage was determined as 1.33.

Turning to A36G G99A, the self-cleavage worked out at 0.74.

Take A47G U131A: the self-cleavage turned out to be 0.62.

In the case of U87A A94G, the self-cleavage turned out to be 1.64.

Consider A54G A89G, for which the self-cleavage is 1.55.

Take U19A A126C: the self-cleavage worked out at 0.55.

As to A13G G41C, the self-cleavage amounted to 1.02.

For the variant U38G A47G, the self-cleavage is 1.78.

As to A51G A68C, the self-cleavage stood at 1.46.

Consider U37C A135G, for which the self-cleavage turned out to be 0.95.

Consider A27G U120C, for which the self-cleavage was 0.68.

As to U70C G83A, the self-cleavage amounted to 1.57.

Turning to A23G C32U, the self-cleavage was determined as 0.82.

For C85U U120G, the self-cleavage is 0.64.

Regarding C81A U103C, the self-cleavage came out at 0.13.

On to A59U A118G, for which the self-cleavage worked out at 0.75.

Take A22G U39A: the self-cleavage was 1.39.

For the variant U39C A62U, the self-cleavage came to 1.95.

Turning to G31A G137U, the self-cleavage stood at 1.5.

For U97C U132A, the self-cleavage was determined as 1.28.

Turning to C6U U38C, the self-cleavage came to 1.48.

As to U19C C40U, the self-cleavage stood at 1.67.

Take A47G U102A: the self-cleavage worked out at 0.78.

Consider G75C A126G, for which the self-cleavage is 0.12.

With A33U A62U, the self-cleavage came out at 2.26.

For U12C A94G, the self-cleavage turned out to be 1.34.

As to A63G U122A, the self-cleavage was 1.47.

Take A59U A117G: the self-cleavage was found to be 1.72.

Turning to U37C U103G, the self-cleavage stood at 0.02.

For U72A C128U, the self-cleavage was determined as 0.15.

Turning to A90G A134U, the self-cleavage amounted to 1.49.

For the variant A18G A82G, the self-cleavage is 0.98.

Take A94G A114C: the self-cleavage came to 0.05.

Take G7U A90G: the self-cleavage stood at 2.21.

For A66G A95G, the self-cleavage was 1.54.

As for A24G C105A, the self-cleavage came out at 0.02.

For the variant A33G C76U, the self-cleavage came out at 0.12.

Take U39C A89G: the self-cleavage was determined as 1.73.

For U26A C105A, the self-cleavage was found to be 0.02.

A63G C128U: the self-cleavage was 1.95.

Consider U131C A134G, for which the self-cleavage was 0.73.

On to C34U, for which the self-cleavage amounted to 1.35.

For A66U A94G, the self-cleavage came out at 1.36.

Turning to A30U A54C, the self-cleavage was found to be 1.77.

Turning to C34U A90G, the self-cleavage is 0.74.

Regarding U3A U38C, the self-cleavage is 1.

For the variant A23G A64G, the self-cleavage is 0.58.

As to A54G A96U, the self-cleavage turned out to be 2.04.

As to C46U U72C, the self-cleavage was 0.21.

Consider A22G A59U, for which the self-cleavage came to 1.11.

For the variant U49C A68U, the self-cleavage worked out at 1.95.

For the variant U49C A68C, the self-cleavage worked out at 1.29.

U70C U108A: the self-cleavage was 0.03.

For U57C A82G, the self-cleavage was determined as 0.49.

In the case of A23G A98U, the self-cleavage was 0.92.

Turning to A56G A86U, the self-cleavage is 1.67.

Turning to U57C A111U, the self-cleavage was determined as 0.08.

For G8A A117G, the self-cleavage was 2.27.

On to U39A A92G, for which the self-cleavage was found to be 0.92.

As for G15C A94G, the self-cleavage came out at 0.33.

Regarding A68G U70C, the self-cleavage stood at 0.51.

With U37C A96U, the self-cleavage was 1.84.

On to A11U A82G, for which the self-cleavage amounted to 0.63.

As to U3C U72C, the self-cleavage was 0.25.

For the variant G14U A82U, the self-cleavage worked out at 0.13.

In the case of U87A A129C, the self-cleavage was found to be 0.8.

In the case of U72C A118G, the self-cleavage turned out to be 0.1.

For the variant A86G A98G, the self-cleavage came out at 0.52.

As to U39A U132C, the self-cleavage was 1.97.

Take G20A A117G: the self-cleavage came out at 0.65.

As to A5G U124C, the self-cleavage worked out at 0.58.

For the variant A111G U139G, the self-cleavage is 0.02.

Turning to A47U U124C, the self-cleavage stood at 0.5.
